pyrene = pyrene fluorescent label
Target: Aβ42 fibers (Homo sapiens (Human), UniProt P05067 672-713)
Assay: pyrene excimer fluorescence (FIG. 11A legend)

Chain of Aβ42 fibers (P05067 672-713 limits assumed): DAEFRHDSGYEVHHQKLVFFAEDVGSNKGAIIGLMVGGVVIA

B1: Peptide probe specific for Aβ (SEQ ID NO:36) labeled at each terminus with pyrene (peptide)
peptide: pyrene-KLVFFAEDVGSNKGAIIGLM-pyrene
notes: also called Aβ peptide probe; dipyrene labeled peptide probe
- binding result: binds

Reference: patent US20130108549A1 (ADLYFE, published 2013)
